Several values for one entry are separate records, joined by “and”; a condition that tells them apart may be missing. Equal entries are not always repeated.

Test [1] concerns the target T1, HER2-Fc (UniProt P04626 23-652).
T1 construct: Coated at 10 µg/ml on ELISA plates; also called HER2 antigen; immobilised HER2 target antigen (ELISA); not shown: Fc part
The experiment in a line: ELISA, plates coated with 10 µg/ml HER2-Fc, anti-myc IgG detection. A general note: An ELISA detects its analyte on a solid surface through an enzyme-linked reagent.

Test [2] deals with T1, HER2-Fc. The experiment in a line: ELISA on plates coated with 10 µg/ml HER2-Fc, detection anti-T7 peroxidase conjugate, absorption at 450 nm. As to the method: (§1) All proteins were detected using the C-terminal T7 Tag which was not expected to be chemically modified (no lysines present). 96-well Immunosorb ELISA plates were coated with 10 μg/ml HER2-Fc in PBS, followed by the test samples, anti-T7 peroxidase conjugate. Extensive PBS washes were in between each layer and detection was with BM-Blue substrate.

The target in test [3] is T1, HER2-Fc. The experiment in a line: ELISA, plates coated with 10 µg/ml HER2-Fc, anti-T7 peroxidase detection. As to the method: as §1
The target of test [4] is T2, HER2 immobilised on a Biacore chip (UniProt P04626 23-652, limits assumed).
T2 construct: also called immobilised HER2 target antigen (Biacore SPR); HER2 chip
The experiment in a line: Biacore SPR, HER2 amine-coupled to the chip; Acetate conjugate, DAR 16. As to the method:
(§2) A standard amine-coupling method was used to prepare all Biacore surfaces (CM5 or CM3), as follows. Flow cells were activated individually by injecting a freshly mixed solution of 0.2M EDC in 0.05 M NHS at 30 μl/min. […] Excess NHS ester was deactivated using a 1 M ethanolamine solution. […] The dissociation time was extended to 3600 s for the highest concentration. Surfaces were regenerated with 45 s injection of MgCl₂ […].
(Surface plasmon resonance follows binding to a sensor surface in real time, without labels.)

Test [5] addresses T2, HER2 immobilised on a Biacore chip. The experiment in a line: Biacore SPR, HER2 amine-coupled to the chip.
For test [6] the target is unchanged. The experiment in a line: Biacore SPR, HER2 amine-coupled to the chip; Auristatin-F-C5 conjugate, DAR 3.3. As to the method:
as §2

Test [7] shares this target. The experiment in a line: Biacore SPR, HER2 amine-coupled to the chip; MMAF-C5 conjugate, DAR 7.1. As to the method:
as §2

The target is the same in test [8]. The experiment in a line: Biacore SPR, HER2 amine-coupled to the chip; unmodified scFv (TCT1067). As to the method: as §2
For test [9] the target is unchanged. The experiment in a line: Biacore SPR, HER2 amine-coupled to the chip; Auristatin-F-C5 conjugate, DAR 11.9. As to the method: as §2
Test [10] has the same target. The experiment in a line: Biacore SPR, HER2 amine-coupled to the chip; DM1-dPEG12 conjugate, DAR 8. As to the method: as §2
For test [11] the target is unchanged. The experiment in a line: Biacore SPR, HER2 amine-coupled to the chip; MMAE-PAB-Cit-Val-dPEG9 conjugate, DAR 8.6. As to the method:
as §2

The target is the same in test [12]. The experiment in a line: Biacore SPR, HER2 amine-coupled to the chip; Auristatin-F-C5 conjugate, DAR 5.65. As to the method: as §2
For test [13] the target is unchanged. The experiment in a line: Biacore SPR, HER2 amine-coupled to the chip; DM1-dPEG12 conjugate, DAR 7. As to the method:
as §2

For test [14] the target is unchanged. The experiment in a line: Biacore SPR, HER2 amine-coupled to the chip; MMAF-C5 conjugate, DAR 5.2. As to the method: as §2

In general, Kd refers to the constant that tells how readily two partners part at equilibrium. Low values mean a tighter complex, high ones a looser complex. For “C6.5 scFv-SPDP conjugate, linker to antibody ratio 5.4, reduced with TCEP”, the dissociation constant Kd with HER2-Fc [1] stood at 24.9 nM.

For the molecule “C6.5 scFv, non-SPDP modified but reduced control”, in the test with HER2-Fc [1], the Kd stood at 42 nM. This Kd is about 1.7-fold higher than that of the molecule before.

B1: scFv (TCT)-Cemadotin ADC sample 3 (DAR 11) (scFv)
scFv: SGSGGSGQVQLVQSGAEVKKPGESLKISCKGSGYSFTSYWIAWVRQMPGKGLEYMGLIYPGDSDTKYSPSFQGQVTISVDKSVSTAYLQWSSLKPSDSAVYFCARHDVGYCSSSNCAAWPEYFQHWGQGTLVTVSSGGGGSGGGGSGGGGSQSVLTQPPSVSAAPGQKVTISCSGSSSNIGNNYVSWYQQLPGTAPKLLIYGHTNRPAGVPDRFSGSKSGTSASLAISGFRSEDEADYYCAAWDDSLSGWVFGGGTKLTVLMASMTGGQQMG
modifications: Cemadotin on all but one of the surface lysine residues (11/12), DAR 10.96 by AAA
notes: also called TCT-Cem ADC3; TCT-Cemadotin conjugate 3
For orientation: EC50 (read off the curve) means the concentration giving half of the maximal effect. Lower therefore signals higher potency in that assay. Take B1: in the test with HER2-Fc [2], the concentration for a half-maximal effect (EC50 (read off the curve)) was roughly 40 nM. The affinity with HER2-Fc [3], expressed as Kd, was 27.5 nM.

B2: scFv (TCT)-Cemadotin ADC sample 1 (DAR 3.9) (scFv)
scFv: B1 scFv
modifications: Cemadotin (from Cemadotin-NHS, compound 2) on lysine residues, average DAR 3.9 by AAA
notes: also called TCT-Cem ADC1; TCT-Cemadotin conjugate 1
Turning to B2, in the test with HER2-Fc [2], the 50% effective concentration (EC50 (read off the curve)) is roughly 4 nM. The molecule also yielded a Kd with HER2-Fc [3] of 3.3 nM.

B3: scFv (TCT)-Cemadotin ADC sample 2 (DAR 8.2) (scFv)
scFv: B1 scFv
modifications: Cemadotin on lysine residues, average DAR 8.2 by AAA
notes: also called TCT-Cem ADC2; TCT-Cemadotin conjugate 2
Turning to B3, the “EC50 (read off the curve)” value with HER2-Fc [2] was roughly 20 nM. In addition, in the test with HER2-Fc [3], binding was put at a Kd of 15.5 nM.

B4: scFv (TCT1067)-Acetate DAR 16 (scFv)
scFv: SGSGGSGQVQLVQSGAEVKKPGESLKISCKGSGYSFTSYWIAWVRQMPGKGLEYMGLIYPGDSDTKYSPSFQGQVTISVDKSVSTAYLQWSSLKPSDSAVYFCARHDVGYCTDRTCAAWPEWLGVWGQGTLVTVSSGGGGSGGGGSGGGGSQSVLTQPPSVSAAPGQKVTISCSGSSSNIGNNYVSWYQQLPGTAPKLLIYGHTNRPAGVPDRFSGSKSGTSASLAISGFRSEDEADYYCASWDYTLSGWVFGGGTKLTVLMASMTGGQQMG
modifications: acetyl groups (from Acetate-NHS) on lysines, N-terminal amine and further residues, 16 additions by LC-MS
notes: also called TCT1067-acetate conjugate 2
Broadly, the koff is the first-order rate constant of dissociation. A higher koff goes with fast dissociation. The term kon denotes a measure of how fast the partners come together. The low end stands for slower complex formation, the high end for faster complex formation. B4: the affinity in test [4], expressed as Kd, was 0.021 nM. Also, in test [5], the koff was determined as 7.64e-05 s⁻¹ and the association rate constant (kon) was found to be 3.63e+06 M⁻¹ s⁻¹.

B5: scFv (TCT1067)-Auristatin-F-C5 DAR 3.3 (scFv)
scFv: B4 scFv
modifications: Auristatin F-C5 on lysine residues; DAR 3.64 by AAA, 2.9 by MS, average 3.3
notes: also called TCT1067-AF-C5 ADC 1
Consider B5, for which the Kd in test [6] was determined as 0.0328 nM. In [5], this molecule displayed a koff of 1.82e-05 s⁻¹ and a kon of 556000 M⁻¹ s⁻¹.

B6: scFv (TCT1067)-MMAF-C5 ADC 2 (DAR 7.1) (scFv)
scFv: B4 scFv
modifications: MMAF-C5 on lysine residues; DAR 8.6 by AAA, 5.5 by MS, average 7.1
notes: also called scFv (TCT1067)-MMAF DAR 8.7
B6: in test [7], the affinity, expressed as Kd, was 0.0038 nM; the dissociation rate constant (koff) turned out to be 1.7e-05 s⁻¹; the association rate constant (kon) was 4.6e+06 M⁻¹ s⁻¹.

B7: scFv (TCT1067) (scFv)
scFv: B4 scFv
notes: also called unmodified scFv (TCT1067)
In the case of B7, in test [5], the dissociation rate constant (koff) was 3.7e-05 s⁻¹ and 3.69e-05 s⁻¹; the kon was 3.9e+06 M⁻¹ s⁻¹ and 3.88e+06 M⁻¹ s⁻¹. In addition, the Kd in test [8] came out at 0.0095 nM.

B8: scFv (TCT1067)-P5-C5 DAR 10.9 (scFv)
scFv: B4 scFv
modifications: P5-C5 on lysine residues; DAR 10.4 by AAA, 11.7 by MS, overall average 10.9
notes: also called TCT1067-P5C5 ADC 1; compound 71
Consider B8, for which, in test [5], the Kd was 0.302 nM, the koff is 7.13e-05 s⁻¹ and the kon amounted to 236000 M⁻¹ s⁻¹.

B9: scFv (TCT1067)-Auristatin-F-C5 DAR 11.9 (scFv)
scFv: B4 scFv
modifications: Auristatin F-C5 on lysine residues; DAR 13.4 by AAA, 10.4 by MS, average 11.9
notes: also called TCT1067-AF-C5 ADC 3
In [5], B9 gave a koff of 1.76e-05 s⁻¹ and an association rate constant (kon) of 21700 M⁻¹ s⁻¹. The same molecule yielded a dissociation constant Kd in test [9] of 0.81 nM.

B10: scFv (TCT1067)-DM1-dPEG12 DAR 8 (scFv)
scFv: B4 scFv
modifications: Maytansine DM1-dPEG12 (from compound 90) on lysine residues, DAR 8 by LC-MS
notes: also called TCT1067-Maytansine-PEG(12) DM1 ADC 2; scFv (TCT1067)-DM1 DAR 8
In test [5], B10 gave an off-rate (koff) of 3.28e-05 s⁻¹ and a kon of 13200 M⁻¹ s⁻¹. In test [10], this molecule showed an equilibrium dissociation constant (Kd) of 2.48 nM.

B11: scFv (TCT1067)-MMAE-PAB-Cit-Val-dPEG9 conjugate, DAR 8.6 (scFv)
scFv: B4 scFv
modifications: MMAE-PAB-Cit-Val-dPEG9 (from compound 86) on lysine residues; DAR 9.6 by AAA, 7.5 by LC-MS, average 8.6
notes: also called TCT1067-MMAE ADC1
In test [11], B11 had a Kd of 1 nM. In test [5], this molecule returned a dissociation rate constant (koff) of 2.23e-05 s⁻¹ and a kon of 22100 M⁻¹ s⁻¹.

B12: scFv (TCT1067)-Auristatin-F-C5 DAR 5.65 (scFv)
scFv: B4 scFv
modifications: Auristatin F-C5 on lysine residues; DAR 6.31 by AAA, 4.98 by MS, average 5.65
notes: also called TCT1067-AF-C5 ADC2
In the case of B12, in [5], the koff was found to be 1.35e-05 s⁻¹ and the on-rate constant (kon) amounted to 336000 M⁻¹ s⁻¹. In test [12], the affinity, expressed as Kd, was 0.0403 nM.

B13: scFv (TCT1067)-DM1-dPEG12 DAR 7 (scFv)
scFv: B4 scFv
modifications: Maytansine DM1-dPEG12 on lysine residues, 6-8 additions, average DAR 7 by LC-MS
notes: also called TCT1067-Maytansine-PEG(12) DM1 ADC 1; compound 124
In [5], B13 had a koff of 2.7e-05 s⁻¹ and an association rate constant (kon) of 19500 M⁻¹ s⁻¹. In test [13], binding was characterised by a dissociation constant (Kd) of 1.39 nM.

B14: scFv (TCT1067)-MMAF-C5 ADC 1 (DAR 5.2) (scFv)
scFv: B4 scFv
modifications: MMAF-C5 on lysine residues; DAR 6.4 by AAA, 4.0 by MS, average 5.2
notes: also called scFv (TCT1067)-MMAF-C5 DAR 5.2; scFv (TCT1067)-MMAF-C5, DAR 6.4
Take B14: in [14], the affinity, expressed as Kd, was 0.0196 nM; the koff is 3.4e-05 s⁻¹; the kon stood at 1.8e+06 M⁻¹ s⁻¹.

B15: scFv (TCT)-MMAF-C5 ADC 2 (DAR 6.8) (scFv)
scFv: B1 scFv
modifications: MMAF-C5 on lysine residues; DAR 8.0 by AAA, 5.5 by MS, average 6.8
notes: also called scFv (TCT)-MMAF-C5 DAR 6.8; scFv (TCT)-MMAF DAR 8
In test [5], B15 returned an equilibrium dissociation constant (Kd) of 3.6 nM, a dissociation rate constant (koff) of 0.0042 s⁻¹ and a kon of 1.2e+06 M⁻¹ s⁻¹.

B16: scFv (TCT)-Acetate DAR 15 (scFv)
scFv: B1 scFv
modifications: acetyl groups (from Acetate-NHS) on lysines, N-terminal amine and further residues, 15 additions by LC-MS
notes: also called TCT-acetate conjugate 1
As to B16, in test [5], the dissociation constant Kd was 2.9 nM, the koff came to 0.0171 s⁻¹ and the kon was found to be 5.93e+06 M⁻¹ s⁻¹.

B17: scFv (TCT)-MMAF-C5 ADC 1 (DAR 5.6) (scFv)
scFv: B1 scFv
modifications: MMAF-C5 (from MMAF-C5-NHS, compound 78) on lysine residues; DAR 6.64 by AAA, 4.5 by MS, average 5.6
notes: also called scFv (TCT)-MMAF-C5 1 DAR 5.6; scFv (TCT)-MMAF-C5, DAR 6.6
In [5], B17 gave a Kd of 5.4 nM, a koff of 0.0042 s⁻¹ and an on-rate constant (kon) of 770000 M⁻¹ s⁻¹.
